A word on the EC50: it is the concentration needed to bring the measured effect to its halfway point.

The source of these data is US20180312587A1 (ADURO BIOTECH HOLDINGS EUROPE B V, published 2018).

The target in one assay is T1, human SIRPα variant 2 (human, UniProt P78324 31-504).
T1 construct: full length ORF on transfected CHO-K1 cells; also called hSIRPαV2; SIRPαV2
Description: CELISA, CHO-K1 transfectants; average of two experiments. As for the experimental part:
(§1) Binding of the humanized antibodies to hSIRPα was studied in CELISA format. Binding of the hSIRPα antibodies to human SIRPαV1, SIRPαV2, hSIRPβ1, and hSIRPγ was confirmed using CHO-K1 cells that had been transiently transfected with cDNA encoding the full length open reading frame of each of these respective targets subcloned into the pCI-neo vector. CHO-K1.hSIRPαV1, CHO-K1.hSIRPαV2, CHO-K1.hSIRPβ1, and CHO-K1.hSIRPγ cells were seeded in culture medium (DMEM-F12 (Gibco) supplemented with 5% New Born Calf Serum (BioWest) and Pen/Strep (Gibco)) in 96-well flat-bottom tissue culture plates and incubated at 37° C., 5% CO₂ and 95% humidity until cell layers were confluent. Subsequently, culture medium was removed and cells were incubated for 1 hour at 37° C., 5% CO₂ and 95% humidity with purified hSIRPα antibodies (10 μg/mL and dilutions thereof). Next, cells were washed with PBS-T and incubated for 1 hour at 37° C., 5% CO₂ and 95% humidity with goat-anti-human IgG-HRP conjugate (Jackson Immuno Research) or goat-anti-mouse IgG-HRP (Southern Biotech). Subsequently, cells were washed three times with PBS-T and anti-hSIRPα immunoreactivity was visualized with TMB Stabilized Chromogen (Invitrogen). Reactions were stopped with 0.5 M H₂SO₄ and absorbances were read at 450 and 610 nm. […] In Table 13 the EC50 values of the humanized hSIRPα antibodies are depicted.
(§2) Table 13: Binding of humanized and parental hSIRPα.50A antibodies to CHO-K1.hSIRPαV1, CHO-K1.hSIRPαV2, CHO-K1.hSIRPβ1, and CHO-K1.hSIRPγ cells.

For the next assay, the target named is T2, human SIRPα variant 1 (human, UniProt P78324 31-504).
T2 construct: full length ORF on transfected CHO-K1 or HEK293 cells; entry includes the signal peptide; also called hSIRPαV1; SIRPαV1
The description is as above. As for the experimental part: as §1, §2

The next assay concerns the target T3, human SIRPγ (human, UniProt Q9P1W8 29-387).
T3 construct: on transfected CHO-K1 cells; also called hSIRPγ
Description: CELISA, CHO-K1 transfectants; extrapolated. As for the experimental part: as §1, §2

In the next assay the target is T4, human SIRPβ1 (human, UniProt O00241 30-398).
T4 construct: also called hSIRPβ1
Description: CELISA, CHO-K1 transfectants; nd = not detected. As for the experimental part: as §1, §2

T4 sequence (O00241 30-398 limits assumed): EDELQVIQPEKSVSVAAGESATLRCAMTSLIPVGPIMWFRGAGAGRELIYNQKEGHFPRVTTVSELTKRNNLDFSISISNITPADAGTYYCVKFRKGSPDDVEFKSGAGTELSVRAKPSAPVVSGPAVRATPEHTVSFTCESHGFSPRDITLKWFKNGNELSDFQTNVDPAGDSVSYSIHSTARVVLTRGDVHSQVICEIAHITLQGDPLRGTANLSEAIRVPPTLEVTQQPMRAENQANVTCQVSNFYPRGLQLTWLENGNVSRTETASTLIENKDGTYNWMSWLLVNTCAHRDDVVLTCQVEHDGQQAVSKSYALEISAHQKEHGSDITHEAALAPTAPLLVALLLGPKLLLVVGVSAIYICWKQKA
T2 sequence (P78324 31-504 limits assumed, change not shown): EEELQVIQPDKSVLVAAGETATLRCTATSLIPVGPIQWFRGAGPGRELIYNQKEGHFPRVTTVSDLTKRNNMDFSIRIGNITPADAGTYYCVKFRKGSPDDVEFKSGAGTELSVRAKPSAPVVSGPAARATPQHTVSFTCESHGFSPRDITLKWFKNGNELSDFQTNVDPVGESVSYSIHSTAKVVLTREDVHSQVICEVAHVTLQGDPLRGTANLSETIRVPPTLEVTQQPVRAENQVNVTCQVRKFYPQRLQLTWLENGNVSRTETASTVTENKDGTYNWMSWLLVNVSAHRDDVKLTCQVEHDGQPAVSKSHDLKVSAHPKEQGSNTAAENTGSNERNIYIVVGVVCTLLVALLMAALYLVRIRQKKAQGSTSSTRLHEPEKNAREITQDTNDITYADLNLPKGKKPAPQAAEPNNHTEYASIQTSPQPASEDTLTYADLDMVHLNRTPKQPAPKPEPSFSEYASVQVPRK
T1 sequence (P78324 other isoform, or with tags, fused parts or gaps mutant limits assumed): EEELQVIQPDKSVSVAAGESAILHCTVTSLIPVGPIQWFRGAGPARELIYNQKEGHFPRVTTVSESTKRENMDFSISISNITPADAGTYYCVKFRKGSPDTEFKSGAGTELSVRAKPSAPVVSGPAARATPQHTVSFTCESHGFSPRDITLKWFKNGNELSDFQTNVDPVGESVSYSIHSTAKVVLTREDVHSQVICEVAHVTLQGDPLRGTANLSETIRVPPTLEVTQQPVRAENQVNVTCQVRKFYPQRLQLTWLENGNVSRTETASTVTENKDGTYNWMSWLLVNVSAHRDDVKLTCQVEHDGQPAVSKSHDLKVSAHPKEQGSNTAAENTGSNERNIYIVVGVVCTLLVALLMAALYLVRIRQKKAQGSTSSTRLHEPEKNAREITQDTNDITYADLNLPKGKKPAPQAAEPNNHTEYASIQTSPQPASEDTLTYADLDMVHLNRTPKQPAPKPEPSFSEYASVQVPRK
T3 sequence (Q9P1W8 29-387 limits assumed): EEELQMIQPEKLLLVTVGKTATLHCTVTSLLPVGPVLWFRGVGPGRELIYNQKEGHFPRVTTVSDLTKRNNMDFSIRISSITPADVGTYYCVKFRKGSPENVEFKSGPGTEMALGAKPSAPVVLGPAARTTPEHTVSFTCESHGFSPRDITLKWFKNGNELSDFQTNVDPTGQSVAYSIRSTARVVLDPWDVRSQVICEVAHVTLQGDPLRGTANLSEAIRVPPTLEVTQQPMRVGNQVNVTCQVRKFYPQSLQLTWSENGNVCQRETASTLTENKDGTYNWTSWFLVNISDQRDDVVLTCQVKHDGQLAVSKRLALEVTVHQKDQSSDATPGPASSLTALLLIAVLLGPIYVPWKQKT

B1: hSIRPα.50A.H1L2 (antibody, human IgG4 S228P, kappa, V domains shown)
VH: EVQLQQSGAEVVKPGASVKVSCKASGFTFTNYYIHWVRQAPGQGLEWIGWIYPGNVNTKYNEKFKARVTITADKSTSTAYMDLSSLRSEDTAVYYCARPTIIATDFDVWGQGTTVTVSS
VL: DIVMTQSPSSLSASVGDRVTITCKASQGVGTAVGWYQQKPGKAPKLLIYWASTRHTGVPDRFSGSGSGTDFTLTISNLQPEDFADYYCQQYSTYPFTFGGGTKVEIKR
notes: human IgG4 S228P, kappa; also called hSIRPα.50H1L2
On to B1, for which the EC50 with human SIRPα variant 2 is 0.816 nM; with human SIRPα variant 1, 0.781 nM; in the assay with human SIRPγ it was 1.26 nM. Besides, the binding result with human SIRPβ1 was “no binding (tested: 10 µg/mL and dilutions thereof)”.

B2: hSIRPα.50A.H3L1 (antibody, human IgG4 S228P, kappa, V domains shown)
VH: EVQLVQSGAEVVKPGASVMISCKASGFTFTNYYIHWVRQRPGQGLEWIGWIYPGNVNTKYNEKFKARVIMTADKSTSTVYMQLSSLTSEDTAVYYCARPTIIATDFDVWGQGTLVTVSS
VL: DIVLTQSPSFLSASVGDRVTITCKASQGVGTAVGWYQQKPGKAPKLLIYWASTRHTGVPDRFSGSGSGTEFTLTISSLQPEDFAAYYCQQYSTYPFTFGGGTKLEIKR
notes: human IgG4 S228P, kappa; also called hSIRPα.50H3L1
Take B2: the figures for the EC50 with human SIRPα variant 2, with human SIRPα variant 1 and in the assay with human SIRPγ were 1.06 nM, 1.1 nM and 1.42 nM, respectively. For the same molecule, the binding result with human SIRPβ1 is “no binding (tested: 10 µg/mL and dilutions thereof)”.

B3: hSIRPα.50A.H1L5 (antibody, human IgG4 S228P, kappa, V domains shown)
VH: EVQLQQSGAEVVKPGASVKVSCKASGFTFTNYYIHWVRQAPGQGLEWIGWIYPGNVNTKYNEKFKARVTITADKSTSTAYMDLSSLRSEDTAVYYCARPTIIATDFDVWGQGTTVTVSS
VL: DIVLTQSPSFLSASVGDRVTITCKASQGVGTAVGWYQQKPGKSPKLLIYWASTRHTGVPDRFSGSGSGTEFTLTISNLQPEDFAAYYCQQYSTYPFTFGGGTKLEIKR
notes: human IgG4 S228P, kappa; also called hSIRPα.50H1L5
On to B3, for which the results for the EC50 in the assay with human SIRPα variant 2, in the assay with human SIRPα variant 1 and with human SIRPγ were 0.848 nM, 0.962 nM and 1.01 nM, respectively. Also, in the assay with human SIRPβ1, the binding result was “no binding (tested: 10 µg/mL and dilutions thereof)”.

B4: hSIRPα.50A.H1L1 (antibody, human IgG4 S228P, kappa, V domains shown)
VH: EVQLQQSGAEVVKPGASVKVSCKASGFTFTNYYIHWVRQAPGQGLEWIGWIYPGNVNTKYNEKFKARVTITADKSTSTAYMDLSSLRSEDTAVYYCARPTIIATDFDVWGQGTTVTVSS
VL: DIVLTQSPSFLSASVGDRVTITCKASQGVGTAVGWYQQKPGKAPKLLIYWASTRHTGVPDRFSGSGSGTEFTLTISSLQPEDFAAYYCQQYSTYPFTFGGGTKLEIKR
notes: human IgG4 S228P, kappa; also called hSIRPα.50H1L1
With B4, the EC50 with human SIRPα variant 2 is 0.864 nM; with human SIRPα variant 1 it was 0.883 nM; with human SIRPγ, 1.49 nM. The binding result with human SIRPβ1 is “no binding (tested: 10 µg/mL and dilutions thereof)”.

B5: hSIRPα.50A.H1L3 (antibody, human IgG4 S228P, kappa, V domains shown)
VH: EVQLQQSGAEVVKPGASVKVSCKASGFTFTNYYIHWVRQAPGQGLEWIGWIYPGNVNTKYNEKFKARVTITADKSTSTAYMDLSSLRSEDTAVYYCARPTIIATDFDVWGQGTTVTVSS
VL: ELVMTQSPSSLSASVGDRVTITCKASQGVGTAVGWYQQKPGKAPKLLIYWASTRHTGVPDRFSGSGSGTDFTLAISSLQPEDIADYYCQQYSTYPFTFGGGTKVEIKR
notes: human IgG4 S228P, kappa; also called hSIRPα.50H1L3
Regarding B5, the EC50 in the assay with human SIRPα variant 2 was 1.11 nM; in the assay with human SIRPα variant 1, 1.09 nM; in the assay with human SIRPγ, 2.58 nM. Further, the binding result in the assay with human SIRPβ1 is “no binding (tested: 10 µg/mL and dilutions thereof)”.

B6: hSIRPα.50A.H5L1 (antibody, human IgG4 S228P, kappa, V domains shown)
VH: EVQLVQSGAEVVKPGASVKVSCKASGFTFTNYYIHWVRQAPEQGLEWIGWIYPGNVNTKYNEKFKARVTMTADKSTSTAYMELSSLRSDDMAVYYCARPTIIATDFDVWGQGTTVTVSS
VL: DIVLTQSPSFLSASVGDRVTITCKASQGVGTAVGWYQQKPGKAPKLLIYWASTRHTGVPDRFSGSGSGTEFTLTISSLQPEDFAAYYCQQYSTYPFTFGGGTKLEIKR
notes: human IgG4 S228P, kappa; also called hSIRPα.50H5L1
On to B6, for which the EC50 is 0.709 nM with human SIRPα variant 2, 0.731 nM with human SIRPα variant 1 and 1.03 nM in the assay with human SIRPγ. In the assay with human SIRPβ1, the binding result was “no binding (tested: 10 µg/mL and dilutions thereof)”.

B7: hSIRPα.50A.H1L4 (antibody, human IgG4 S228P, kappa, V domains shown)
VH: EVQLQQSGAEVVKPGASVKVSCKASGFTFTNYYIHWVRQAPGQGLEWIGWIYPGNVNTKYNEKFKARVTITADKSTSTAYMDLSSLRSEDTAVYYCARPTIIATDFDVWGQGTTVTVSS
VL: DIQMTQSPSSLSASVGDRVTITCKASQGVGTAVGWYQKKPGKVPKLLIYWASTRHTGVPDRFSGSGSGTDFTLTINGLQPEDVATYYCQQYSTYPFTFGGGTKLEIKR
notes: human IgG4 S228P, kappa; also called hSIRPα.50H1L4
As to B7, the EC50 in the assay with human SIRPα variant 2 is 1.62 nM; with human SIRPα variant 1 it was 1.49 nM; in the assay with human SIRPγ it was 7.43 nM. Further, the binding result with human SIRPβ1 is “no binding (tested: 10 µg/mL and dilutions thereof)”.

B8: hSIRPα.50A.H4L3 (antibody, human IgG4 S228P, kappa, V domains shown)
VH: EVQLQQSGAELVKPGASVKVSCKASGFTFTNYYIHWVRQRPGQGLEWMGWIYPGNVNTKYNEKFKAKATITADKSTSTAYMELSSLTSEDTAVYYCARPTIIATDFDVWGQGTTVTVSS
VL: ELVMTQSPSSLSASVGDRVTITCKASQGVGTAVGWYQQKPGKAPKLLIYWASTRHTGVPDRFSGSGSGTDFTLAISSLQPEDIADYYCQQYSTYPFTFGGGTKVEIKR
notes: human IgG4 S228P, kappa; also called hSIRPα.50H4L3
Turning to B8, the EC50 is 0.898 nM in the assay with human SIRPα variant 2, 0.933 nM with human SIRPα variant 1 and 1.6 nM with human SIRPγ. In addition, the binding result with human SIRPβ1 was “no binding (tested: 10 µg/mL and dilutions thereof)”.

B9: hSIRPα.50A.H5L3 (antibody, human IgG4 S228P, kappa, V domains shown)
VH: EVQLVQSGAEVVKPGASVKVSCKASGFTFTNYYIHWVRQAPEQGLEWIGWIYPGNVNTKYNEKFKARVTMTADKSTSTAYMELSSLRSDDMAVYYCARPTIIATDFDVWGQGTTVTVSS
VL: ELVMTQSPSSLSASVGDRVTITCKASQGVGTAVGWYQQKPGKAPKLLIYWASTRHTGVPDRFSGSGSGTDFTLAISSLQPEDIADYYCQQYSTYPFTFGGGTKVEIKR
notes: human IgG4 S228P, kappa; also called hSIRPα.50H5L3
As for B9, the EC50 is 0.796 nM with human SIRPα variant 2, 1.03 nM with human SIRPα variant 1 and 1.61 nM in the assay with human SIRPγ. Also, the binding result with human SIRPβ1 is “no binding (tested: 10 µg/mL and dilutions thereof)”.

B10: hSIRPα.50A.H4L2 (antibody, human IgG4 S228P, kappa, V domains shown)
VH: EVQLQQSGAELVKPGASVKVSCKASGFTFTNYYIHWVRQRPGQGLEWMGWIYPGNVNTKYNEKFKAKATITADKSTSTAYMELSSLTSEDTAVYYCARPTIIATDFDVWGQGTTVTVSS
VL: DIVMTQSPSSLSASVGDRVTITCKASQGVGTAVGWYQQKPGKAPKLLIYWASTRHTGVPDRFSGSGSGTDFTLTISNLQPEDFADYYCQQYSTYPFTFGGGTKVEIKR
notes: human IgG4 S228P, kappa; also called hSIRPα.50H4L2
As for B10, the EC50 with human SIRPα variant 2 is 0.651 nM; in the assay with human SIRPα variant 1 it was 0.737 nM; with human SIRPγ it was 0.871 nM. Moreover, the binding result with human SIRPβ1 is “no binding (tested: 10 µg/mL and dilutions thereof)”.

B11: hSIRPα.50A.H5L5 (antibody, human IgG4 S228P, kappa, V domains shown)
VH: EVQLVQSGAEVVKPGASVKVSCKASGFTFTNYYIHWVRQAPEQGLEWIGWIYPGNVNTKYNEKFKARVTMTADKSTSTAYMELSSLRSDDMAVYYCARPTIIATDFDVWGQGTTVTVSS
VL: DIVLTQSPSFLSASVGDRVTITCKASQGVGTAVGWYQQKPGKSPKLLIYWASTRHTGVPDRFSGSGSGTEFTLTISNLQPEDFAAYYCQQYSTYPFTFGGGTKLEIKR
notes: human IgG4 S228P, kappa; also called hSIRPα.50H5L5
Turning to B11, the EC50 with human SIRPα variant 2 is 0.611 nM; with human SIRPα variant 1, 0.681 nM; with human SIRPγ it was 0.868 nM. In addition, in the assay with human SIRPβ1, the binding result was “no binding (tested: 10 µg/mL and dilutions thereof)”.

B12: hSIRPα.50A.H3L2 (antibody, human IgG4 S228P, kappa, V domains shown)
VH: EVQLVQSGAEVVKPGASVMISCKASGFTFTNYYIHWVRQRPGQGLEWIGWIYPGNVNTKYNEKFKARVIMTADKSTSTVYMQLSSLTSEDTAVYYCARPTIIATDFDVWGQGTLVTVSS
VL: DIVMTQSPSSLSASVGDRVTITCKASQGVGTAVGWYQQKPGKAPKLLIYWASTRHTGVPDRFSGSGSGTDFTLTISNLQPEDFADYYCQQYSTYPFTFGGGTKVEIKR
notes: human IgG4 S228P, kappa; also called hSIRPα.50H3L2
Consider B12, for which the EC50 with human SIRPα variant 2 was 0.999 nM; with human SIRPα variant 1, 1.05 nM; with human SIRPγ, 1.5 nM. Besides, the binding result in the assay with human SIRPβ1 is “no binding (tested: 10 µg/mL and dilutions thereof)”.

B13: hSIRPα.50A.H5L2 (antibody, human IgG4 S228P, kappa, V domains shown)
VH: EVQLVQSGAEVVKPGASVKVSCKASGFTFTNYYIHWVRQAPEQGLEWIGWIYPGNVNTKYNEKFKARVTMTADKSTSTAYMELSSLRSDDMAVYYCARPTIIATDFDVWGQGTTVTVSS
VL: DIVMTQSPSSLSASVGDRVTITCKASQGVGTAVGWYQQKPGKAPKLLIYWASTRHTGVPDRFSGSGSGTDFTLTISNLQPEDFADYYCQQYSTYPFTFGGGTKVEIKR
notes: human IgG4 S228P, kappa; also called hSIRPα.50H5L2
Consider B13, for which the EC50 in the assay with human SIRPα variant 2 is 0.572 nM; with human SIRPα variant 1, 0.675 nM; with human SIRPγ, 0.822 nM. Further, the binding result with human SIRPβ1 was “no binding (tested: 10 µg/mL and dilutions thereof)”.
